Values of other authors, collected in patent publication US20230279355A1, “METHOD FOR THE IN VITRO OR EX VIVO AMPLIFICATION OF STEM CELLS OF BROWN OR BEIGE ADIPOCYTES” (CENTRE NATIONAL DE LA RECHERCHE SCIENTIFIQUE, priority 2020, published 2023).

Test system: UCP1
Settings: described in the literature

B1: Epidermal Growth Factor (protein, UniProt P01133 23-1207, looked up)
Pro-epidermal growth factor: PQHWSCPEGTLAGNGNSTCVGPAPFLIFSHGNSIFRIDTEGTNYEQLVVDAGVSVIMDFHYNEKRIYWVDLERQLLQRVFLNGSRQERVCNIEKNVSGMAINWINEEVIWSNQQEGIITVTDMKGNNSHILLSALKYPANVAVDPVERFIFWSSEVAGSLYRADLDGVGVKALLETSEKITAVSLDVLDKRLFWIQYNREGSNSLICSCDYDGGSVHISKHPTQHNLFAMSLFGDRIFYSTWKMKTIWIANKHTGKDMVRINLHSSFVPLGELKVVHPLAQPKAEDDTWEPEQKLCKLRKGNCSSTVCGQDLQSHLCMCAEGYALSRDRKYCEDVNECAFWNHGCTLGCKNTPGSYYCTCPVGFVLLPDGKRCHQLVSCPRNVSECSHDCVLTSEGPLCFCPEGSVLERDGKTCSGCSSPDNGGCSQLCVPLSPVSWECDCFPGYDLQLDEKSCAASGPQPFLLFANSQDIRHMHFDGTDYGTLLSQQMGMVYALDHDPVENKIYFAHTALKWIERANMDGSQRERLIEEGVDVPEGLAVDWIGRRFYWTDRGKSLIGRSDLNGKRSKIITKENISQPRGIAVHPMAKRLFWTDTGINPRIESSSLQGLGRLVIASSDLIWPSGITIDFLTDKLYWCDAKQSVIEMANLDGSKRRRLTQNDVGHPFAVAVFEDYVWFSDWAMPSVMRVNKRTGKDRVRLQGSMLKPSSLVVVHPLAKPGADPCLYQNGGCEHICKKRLGTAWCSCREGFMKASDGKTCLALDGHQLLAGGEVDLKNQVTPLDILSKTRVSEDNITESQHMLVAEIMVSDQDDCAPVGCSMYARCISEGEDATCQCLKGFAGDGKLCSDIDECEMGVPVCPPASSKCINTEGGYVCRCSEGYQGDGIHCLDIDECQLGEHSCGENASCTNTEGGYTCMCAGRLSEPGLICPDSTPPPHLREDDHHYSVRNSDSECPLSHDGYCLHDGVCMYIEALDKYACNCVVGYIGERCQYRDLKWWELRHAGHGQQQKVIVVAVCVVVLVMLLLLSLWGAHYYRTQKLLSKNPKNPYEESSRDVRSRRPADTEDGMSSCPQPWFVVIKEHQDLKNGGQPVAGEDGQAADGSMQPTSWRQEPQLCGMGTEQGCWIPVSSDKGSCPQVMERSFHMPSYGTQTLEGGVEKPHSLLSANPLWQQRALDPPHQMELTQ
modifications: Pro-epidermal growth factor
expression of UCP1: able to inhibit the expression of UCP1
